# Measured values published in PMC3418248 (2012).
# B1: SepF [B. subtilis] / Halo-ZC (HaloTag fused to the final 69 amino acids of B. subtilis FtsZ) [B. subtilis] (parent complex)
# chain 1: MSMKNKLKNFFSMEDEEYEYEYIETERESHEEHEQKEKPAYNGNKPAGKQNVVSLQSVQKSSKVVLSEPRVYAEAQEIADHLKNRRAVVVNLQRIQHDQAKRIVDFLSGTVYAIGGDIQRIGSDIFLCTPDNVDVSGTISELISEDEHQRW
# chain 2: GFIEQEKDVTKPQRPSLNQSIKTHNQSVPKREPKREEPQQQNTVSRHTSQPADDTLDIPTFLRNRNKRG
# Variants of: B1
# Assay: pull-down (HaloTag bait), densitometric scanning of Coomassie-stained gels; read off a plot
row,screen value,Variant
1,~0.35,chain 2 GFIEQEKDVTKPQRPSLNQSIKTHNQSVPKREPKREEPQQQNTVSRHTSQPADDTLDAPTFLRNRNKRG
2,~0.83,chain 2 GFIEQEKDVTKPQRPSLNQSIKTHNQSVPKREPKREEPQQQNTVSRHTSQPADDALDIPTFLRNRNKRG
3,~0.46,chain 2 GFIEQEKDVTKPQRPSLNQSIKTHNQSVPKREPKREEPQQQNTVSRHTSQPADDTLDIPTFLRNRNKAG
4,~0.04,chain 2 GFIEQEKDVTKPQRPSLNQSIKTHNQSVPKREPKREEPQQQNTVSRHTSQPADDTLDIATFLRNRNKRG
5,~0.53,chain 2 GFIEQEKDVTKPQRPSLNQSIKTHNQSVPKREPKREEPQQQNTVSRHTSQPADDTLAIPTFLRNRNKRG
6,~0.74,chain 2 GFIEQEKDVTKPQRPSLNQSIKTHNQSVPKREPKREEPQQQNTVSRHTSQPADDTLDIPTFLRNRAKRG
7,~0.51,chain 2 GFIEQEKDVTKPQRPSLNQSIKTHNQSVPKREPKREEPQQQNTVSRHTSQPADDTLDIPTFLRNRNARG
8,~0.66,chain 2 GFIEQEKDVTKPQRPSLNQSIKTHNQSVPKREPKREEPQQQNTVSRHTSQPADDTLDIPAFLRNRNKRG
9,~0.9,chain 2 GFIEQEKDVTKPQRPSLNQSIKTHNQSVPKREPKREEPQQQNTVSRHTSQPADATLDIPTFLRNRNKRG
10,~0.42,chain 2 GFIEQEKDVTKPQRPSLNQSIKTHNQSVPKREPKREEPQQQNTVSRHTSQPADDTLDIPTFLRNANKRG
11,~0.03,chain 2 GFIEQEKDVTKPQRPSLNQSIKTHNQSVPKREPKREEPQQQNTVSRHTSQPADDTLDIPTALRNRNKRG
12,~0.69,chain 2 GFIEQEKDVTKPQRPSLNQSIKTHNQSVPKREPKREEPQQQNTVSRHTSQPADDTLDIPTFLRNRNKRA
